{
  "source": "patent US10359406B2",
  "about": "“Diagnosis and treatment of preeclampsia” (A1M Pharma AB, priority 2007, dated 2019)",
  "molecules": {"B1": {"name": "α1m: Recombinant human α1-microglobulin expressed in E. coli; small plasma and tissue protein, heme-binder and radical scavenger (protein, UniProt P02760 20-203, looked up)", "Alpha-1-microglobulin": "GPVPTPPDNIQVQENFNISRIYGKWYNLAIGSTCPWLKKIMDRMTVSTLVLGEGATEAEISMTSTRWRKGVCEETSGAYEKTDTDGKFLYHKSKWNITMESYVVHTNYDEYAIFLTKKFSRHHGPTITAKLYGRAPQLRETLLQDFRVVAQGVGIPEDSIFTMADRGECVPGEQEPEPILIPRV", "modifications": "Alpha-1-microglobulin"}},
  "key": {"[1]": {"test_system": "K562 cells", "assay": "Scavenging of cell-bound heme from K562 cells (spectrophotometry, visual)", "format": "cell-based, human", "details": "cells preloaded with 10 μM heme 30 min; protein 2 or 10 μM, 2 h", "protocol": "FIG. 18. Scavenging of cell heme by α1m. Human erythroleukemic cells (K562) were cultured with either buffer or 10 μM heme for 30 minutes, washed and resuspended in fresh culture medium. A: The cells were then incubated with α1m (2 or 10 μM) for 2 hours, after which time the culture medium was saved. The cells were washed and solubilized by suspending in a buffer containing 1% NP-40. The culture medium and cellsuspension were then analysed spectrophotometrically by reading the absorbance spectra (300-700 nm). B: The various cultures were also analysed visually. Cells were incubated with either buffer or 10 μM heme for 30 min (Step 1), washed and then incubated with buffer, 10 μM α1m or 10 μM AGP for 2 hours (Step 2), washed and solubilized as described above.\nTo study the mechanisms of the cytoprotective effect of α1m, we performed a series of experiments attempting to analyze the interactions between the protein and cell-bound heme. […] The culture media were saved, cells washed and solubilized, and both media and solubilized cells analyzed by spectrophotometry (FIG. 18A) and visually (FIG. 18B). Heme was seen as a strong brown-coloring of the cells and the typical absorbance spectrum with a non-distinct peak around 400 nm. […]"}, "[2]": {"details": "human blood plasma glycoprotein; read-out: Kd of heme binding; cited from earlier work"}, "[3]": {"test_system": "haemoglobin", "assay": "Haemoglobin-α1m complex isolated from placenta tissue (anti-α1m affinity column, SDS-PAGE, Western blotting)", "format": "binding, human", "details": "43-kDa band reacting with anti-α1m and anti-Hb-A; lost with mercaptoethanol", "protocol": "FIG. 20 show SDS-PAGE and Western blotting of a haemoglobin-α1m complex isolated from placenta tissue. A placenta from a healthy donor was homogenized and centrifuged at 100,000 G for 60 min. The supernatant was applied to an anti-α1m Affigel column which was rinsed and eluted with 0.1 M glycine-HCl, pH 2.3. The eluate was separated by SDS-PAGE which was either stained with Coommassie (two left lanes) or transferred to PVDF membranes and blotted with anti-α1m or anti-Hb-A.\nMolecules containing α1m were purified from placenta tissue as described [Berggård et al., 1999]. Approximately 200 g of an apparently normal term human placenta, taken within 3 hours after delivery, were homogenized in 200 ml of 50 mM Tris-HCl, pH 8.0, 0.25 M sucrose, 2 mM EDTA, pepstatin, 1 mg/l, antipain, 5 mg/l, and leupeptin, 10 mg/l, using a Potter-Elvehjem apparatus with a tight-fitting teflon pestle. The homogenate was centrifuged at 10,000 G for 10 min. This pellet was washed by repeatedly suspending 1:1 in the homogenization buffer and recentrifugation at 10,000 G for 10 min. The supernatant was centrifuged at 100,000 G for 90 min. This pellet, containing the placenta membranes and membrane-bound proteins, was dissolved in 40 ml homogenization buffer also containing 0.5% (w/v) Nonidet P-40 (BDH Chemicals) and centrifuged at 20,000 G for 30 min to remove particulate material. […]"}, "[4]": {"test_system": "collagen", "assay": "Heme-induced oxidation of collagen/LDL; carbonyl groups measured by ELISA", "format": "biochemical", "protocol": "FIG. 17. Reduction of carbonyl groups on oxidized collagen by α1m. Collagen, coated to microtiter plates, was oxidized by incubation with 50 μM heme for 17 h. After washing, 0.1, 0.3 or 1 μM α1m, ovalbumin or ascorbate were added, and incubated for 2 h. Carbonyl groups were measured by ELISA. Each column represents the mean of triplicates+/−SE\n(§1) The anti-oxidation properties of α1m are illustrated in FIGS. 16 and 17. […] A possible mechanism for these actions may be the reductase properties of α1m, reducing the oxidants, the oxidation modifications, or both."}, "[5]": {"test_system": "K562 cells", "assay": "Heme-induced cell lysis/death of K562 cells (propidium iodide, FACS)", "format": "cell-based, human", "details": "extracellularly added α1m 2, 5 or 10 μM; 200 μM heme, 4 h", "protocol": "(§2) FIG. 16. A. Cell-protective properties of α1m against heme- and ROS-induced oxidation. K562 cells were labelled with the oxidation-sensitive probe H2DCFDA, washed, and incubated with α1m (2, 5 or 10 μM), AGP (2, 5 or 10 μM) or ascorbate (10 μM) prior to the addition of 10 μM heme. The cells were incubated for 2 h and analysed with FACS. B. K562 cells were cultured with α1m (2, 5 or 10 μM) or a control protein (α1-acid glycoprotein, AGP) (10 μM) prior to the addition of 200 μM heme and cultured 4 h. The cell suspension was collected, mixed with propidium iodide and analysed with FACS.\nas §1"}, "[6]": {"test_system": "K562 cells", "assay": "Heme- and ROS-induced oxidation of K562 cells (H2DCFDA probe, FACS)", "format": "cell-based, human", "details": "extracellularly added α1m 2, 5 or 10 μM; 10 μM heme, 2 h", "protocol": "as §2, §1"}},
  "data": [
    {"molecule": "AGP: control protein (α1-acid glycoprotein), control lipocalin [reference compound]", "values": [
      {"measurement": "effect on cell-bound heme", "setting": "[1]", "result": "did not have any effect"}
    ]},
    {"molecule": "Hemopexin: glycoprotein (60 kDa) found in human blood plasma which eliminates free heme by binding it strongly", "values": [
      {"measurement": "Kd", "setting": "[2]", "result": "~1", "unit": "pM"}
    ]},
    {"molecule": "B1", "values": [
      {"measurement": "effect on cell-bound heme", "setting": "[1]", "result": "almost completely removed from the cells"},
      {"measurement": "binding of haemoglobin in placenta tissue", "setting": "[3]", "result": "haemoglobin is bound by α1m"},
      {"measurement": "heme- and ROS-induced oxidation of collagen, LDL, membrane lipids and whole cells", "setting": "[4]", "result": "inhibited"},
      {"measurement": "removal of pre-formed oxidation products (carbonyl groups) on collagen and LDL", "setting": "[4]; collagen oxidized with 50 μM heme 17 h, 0.1, 0.3 or 1 μM α1m, 2 h", "result": "removed pre-formed oxidation products"},
      {"measurement": "cell lysis (cell death) induced by heme", "setting": "[5]", "result": "inhibits the cell lysis"},
      {"measurement": "oxidation of cell cytosol and cytosol protein thiol groups by heme and ROS", "setting": "[6]", "result": "inhibit the oxidation"}
    ]}
  ]
}
